The results in this text go back to patent US20240124539A1 (NEW YORK UNIVERSITY, published 2024).

Positions of bridges follow the written chain, without caps; N, C: chain ends. Non-standard residues stand in square brackets, D forms with d. Primed or numbered codes have the meaning given here. Chains are numbered I, II in the order given. *: point of attachment. dibenzylether crosslinker″ = crosslinker alkylating both cysteine thiols, drawn in Scheme 1 and; dibenzylether crosslinker = scaffold alkylating both cysteine thiols (drawn in Scheme 1 and; dibenzylether crosslinker(3) = scaffold alkylating both cysteine thiols (Scheme 1; FITC = O=C1OC2(c3ccc(O)cc3Oc3cc(O)ccc32)c2ccc(NC(=S)*)cc21; FITC′ = fluorescein isothiocyanate, linked via thiourea; βAla = NCCC(=O)O Bounds are passed on as bounds.

Experiment [1] has as its target T1, fluorescently-labeled wild-type H-Ras-GDP (MST) (UniProt P01112 1-166, cysteine-reactive dye (Monolith RED-MALEIMIDE 2nd Generation or AFDye 647 maleimide) on cysteine, degree of label 0.43).
T1 construct: range 1-166; also called fluorescently-labeled Ras; wild-type H-Ras labeled with AFDye 647; not shown: N-terminal His6 tag from pProEx HTb
The experiment in a line: microscale thermophoresis (column MST of the drawn table); fluorescently labelled wild-type H-Ras-GDP with serial dilutions of the unlabelled CHD.

Experiment [2] deals with T2, wild-type His6-tagged H-Ras (1-166) pre-loaded with GDP (UniProt P01112 1-166).
T2 construct: range 1-166; also called His6-H-Ras-GDP; not shown: N-terminal His6 tag with TEV site from the pProEx HTb vector
The experiment in a line: fluorescence polarization, fluorescein-labelled CHD, His6-H-Ras-GDP titrated. (In general: In fluorescence polarisation assays a small probe gives low polarisation when free and higher when bound to something large.)

Experiment [3] concerns the target T2, wild-type His6-tagged H-Ras (1-166) …. The experiment in a line: direct fluorescence polarization; fluorescein-labelled CHD titrated with GDP-loaded WT H-Ras.
Protocol: (§1) The generated binding affinity (KD) values for each compound are from biological triplicate studies and were determined via fitting to a sigmoidal dose-response nonlinear regression model on Graphpad Prism 6.
For experiment [4] the target is unchanged. Kind of experiment: fluorescence polarization, fluorescein-labelled CHD (15 nM), His6-H-Ras-GDP titrated.
Protocol: as §1

B1: CHD^Sos-3 (designed binder)
chain 1: Ac-AIGRLCTEILRLRNGA-NH2
chain 2: Ac-LAWRLRELERELARLC-NH2
modifications: linker I:6-II:16 via dibenzylether crosslinker(3)
notes: also called CHC^Sos-3; CHD-3
The Kd is the concentration at which binding is half-saturated. Low readings indicate higher affinity, high ones lower affinity. Regarding B1, in experiment [1], the Kd was more than 10 µM.

B2: FITC-CHD^Sos-2 (designed binder)
chain 1: Ac-WIGRLCTEILRLRNGN-NH2
chain 2: {FITC′}-A[βAla]LAWRLRELERELARLC-NH2
modifications: linker I:6-II:18 via dibenzylether crosslinker; not fully specified
notes: Crosslinked helix dimer; form used in the fluorescence polarization assay; also called CHC^Sos-2 (fluorescein-derivatized); CHD-2
Consider B2, for which, in experiment [2], the “fold enhancement in binding affinity over CHC^Sos-1” value stood at 10 fold. Besides, the Kd in experiment [3] turned out to be 2.79 µM; in experiment [4], 2.8 µM.

B3: FITC-CHD^Sos-6 (designed binder)
chain 1: Ac-WIGRLCTEIRRLRNGN-NH2
chain 2: {FITC}-A[βAla]LAWRLRELERELARLC-NH2
modifications: linker I:6-II:18 via dibenzylether crosslinker″; not fully specified
notes: Crosslinked helix dimer; form used in the fluorescence polarization assay; also called CHC^Sos-6 (fluorescein-derivatized)
B3: the “fold reduction in affinity against CHC^Sos-5” value in experiment [2] worked out at 4 fold. The dissociation constant (Kd) in experiment [4] amounted to 8.6 µM.

B4: FITC-CHD^Sos-4 (designed binder)
chain 1: Ac-WIGRLCTEILRLRNGN-NH2
chain 2: {FITC′}-A[βAla]LAWALRELERELARLC-NH2
modifications: linker I:6-II:18 via dibenzylether crosslinker; not fully specified
notes: Crosslinked helix dimer; form used in the fluorescence polarization assay; also called CHC^Sos-4 (fluorescein-derivatized); CHD-4
With B4, the equilibrium dissociation constant (Kd) was 40.4 µM in experiment [3] and 40 µM in experiment [4].
